Results on four molecules are retold here after patent publication US20240199695A1 (TRANSFERT PLUS S E C, published 2024).

Non-standard residues stand in square brackets, D forms with d. No end group written: not given here. *: point of attachment. curcumin = curcumin, a phytochemical attached to the lysine side chains; Biotin = O=C1N[C@H]2[C@H](CS[C@H]2CCCCC(=O)*)N1; Nle = CCCC[C@H](N)C(=O)O

The target in test [1] is T1, sortilin expressed on cancer cells (SKOV3, ES-2 ovarian cancer cells) (UniProt Q99523 78-831, limits assumed).
T1 sequence (looked up): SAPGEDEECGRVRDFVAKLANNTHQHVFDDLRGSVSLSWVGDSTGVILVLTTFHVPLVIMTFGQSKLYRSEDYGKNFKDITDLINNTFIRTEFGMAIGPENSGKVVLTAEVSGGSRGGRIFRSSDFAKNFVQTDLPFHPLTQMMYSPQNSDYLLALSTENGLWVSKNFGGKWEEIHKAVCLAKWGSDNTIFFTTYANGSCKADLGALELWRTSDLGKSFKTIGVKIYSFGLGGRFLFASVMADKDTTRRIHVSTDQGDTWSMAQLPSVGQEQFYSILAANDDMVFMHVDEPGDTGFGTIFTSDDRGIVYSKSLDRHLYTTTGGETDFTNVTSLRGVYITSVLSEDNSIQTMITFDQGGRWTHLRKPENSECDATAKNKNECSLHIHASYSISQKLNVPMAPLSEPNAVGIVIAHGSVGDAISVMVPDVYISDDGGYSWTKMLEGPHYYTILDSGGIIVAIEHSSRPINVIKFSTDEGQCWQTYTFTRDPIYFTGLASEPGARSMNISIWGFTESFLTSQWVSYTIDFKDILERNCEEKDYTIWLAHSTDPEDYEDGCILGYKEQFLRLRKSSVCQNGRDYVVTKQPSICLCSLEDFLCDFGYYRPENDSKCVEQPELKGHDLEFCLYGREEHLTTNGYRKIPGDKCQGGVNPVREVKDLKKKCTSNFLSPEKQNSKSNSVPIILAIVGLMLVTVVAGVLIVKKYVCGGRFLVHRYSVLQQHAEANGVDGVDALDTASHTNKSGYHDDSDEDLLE

For test [2], the target named is T1, sortilin expressed on cancer cells …. The source holds these as a separate data set.
For test [3] the target is unchanged. The source holds these as a separate data set.
The target is the same in test [4]. This is another data set of the same source.
Another test concerns the target T2, soluble form of sortilin (UniProt Q99523 78-755, limits assumed).
T2 construct: also called soluble sortilin; receptor sortilin
T2 sequence (looked up): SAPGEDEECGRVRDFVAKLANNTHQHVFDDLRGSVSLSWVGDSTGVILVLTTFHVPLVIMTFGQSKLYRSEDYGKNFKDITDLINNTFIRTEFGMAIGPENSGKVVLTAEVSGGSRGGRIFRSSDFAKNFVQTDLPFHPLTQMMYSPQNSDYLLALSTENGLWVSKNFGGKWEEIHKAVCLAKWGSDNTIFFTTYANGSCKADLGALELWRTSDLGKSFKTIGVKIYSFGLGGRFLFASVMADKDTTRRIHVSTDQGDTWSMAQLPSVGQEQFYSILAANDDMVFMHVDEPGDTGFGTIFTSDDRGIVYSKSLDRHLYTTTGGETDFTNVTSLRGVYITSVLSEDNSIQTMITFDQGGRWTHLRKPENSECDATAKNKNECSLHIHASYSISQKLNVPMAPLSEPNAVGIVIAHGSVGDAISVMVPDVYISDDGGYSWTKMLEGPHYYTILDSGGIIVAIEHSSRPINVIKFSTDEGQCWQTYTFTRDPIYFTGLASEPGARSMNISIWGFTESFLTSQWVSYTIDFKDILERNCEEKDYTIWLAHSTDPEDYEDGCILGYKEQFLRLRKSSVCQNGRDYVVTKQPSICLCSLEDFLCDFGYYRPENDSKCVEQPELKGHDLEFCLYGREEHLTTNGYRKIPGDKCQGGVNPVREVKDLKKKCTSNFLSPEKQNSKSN
Put plainly: SPR; biotinylated KBP-103 on a streptavidin chip, soluble sortilin injected. Here is the method: Biotinylated Katana peptide was immobilized on a streptavidin sensor chip. A. Soluble sortilin was then injected over the immobilized peptide. The surface plasmon resonance signal was then monitored over time.
Surface plasmon resonance (SPR) was first used to investigate whether these peptides could be recognized by sortilin. For this approach, biotin was added on the C-terminal end of the Katana-Biopharma peptide during peptide synthesis. The biotinylated-peptide (KBP-103) was then immobilized on a streptavidin sensor chip using recommended procedures from the manufacturer. Increasing concentrations of a soluble form of sortilin was then injected over the sensor chip. Interactions between immobilized KBP-103 and the receptor sortilin was then monitored in real time. A representative interaction curve is shown in FIG. 1, and from the sensorgram curves the affinity constant as well as Ka and Kd were determined and are indicated in Table 2. Affinity constants (KD, […]) were extracted from various injections using the BIA evaluation software.
Background: SPR reads the build-up and loss of mass on a sensor chip optically.

The target of test [5] is T1, sortilin expressed on cancer cells …. Put plainly: cell-based or functional assay.

The term Kd denotes the constant that tells how readily two partners part at equilibrium. A lower Kd goes with higher affinity. As a reminder, the koff is the rate constant with which the complex falls apart. Usually kon stands for the second-order rate constant of association. Lower therefore signals slow association.

With “Neurotensin (from UniProt P30990 151-163) (peptide)”, the decrease of the late apoptosis induced by 2 uM KBA-201 in SKOV3 cells by 10 uM NT in test [1] came to 45.5%. Moreover, the inhibition of KBC106 fluorescence intensity (RFU) in ES-2 cells by neurotensin (bar NT) [continued) C] in test [2] came to 52%. Besides, the decrease of the late apoptosis induced by 2 uM KBA-105 in SKOV3/Luc cells by 10 uM NT in test [3] amounted to 47.5%.

In turn, “Progranulin (from UniProt P28799 18-593) (ligand)” gave a decrease of the late apoptosis induced by 2 uM KBA-201 in SKOV3 cells by 1.2 nM progranulin in test [1] of 55%. The molecule further displayed an inhibition of KBC106 fluorescence intensity (RFU) in ES-2 cells by progranulin [continued) C] in test [2] of 81.5%. In test [4], this molecule registered an inhibition of KBB106 accumulation (% of control) in ovarian cancer cells by progranulin of 52%.

B1: KBP-103: IKLSGGVQAKAGVINMFKSESYK(Biotin) (peptide)
peptide: IKLSGGVQAKAGVINMFKSESYK(Biotin)
notes: Immobilised on a streptavidin sensor chip in the SPR assay; also called biotinylated-peptide; Katana peptide
In the test with soluble form of sortilin, B1 registered a dissociation constant (Kd) of 25.5 nM, a koff of 0.0174 s⁻¹ and a kon of 683000 M⁻¹ s⁻¹.

For Ac-GVRAK(curcumin)AGVRN[Nle]FK(curcumin)SESY [KBC-106 (2:1): Acetyl-GVRAK(curcumin)AGVRN(Nle)FK(curcumin)SESY], the “relative fluorescence (RFU) of ES-2 cells after KBC106 against unconjugated curcumin (live imaging)” value in test [5] was determined as 2.3 fold.
